B1: scFv C25 (scFv)
scFv: QVQLQESGGGLVKPGGSLKLSCAASGFTFSDYYMYWVRQTPEKRLEWVATISDGGSYTYYPDSVKGRFTISRDNAKNNLYLQMSSLKSEDTAMYYCSRYRYDDAMDYWGQGTTVTVSSGGGGSGGGGSGGGGSDIELTQSPASLAVSLGQRATISCRASESVDSYGHSFMQWYQQKPGQPPKLLIYRASNLEPGIPARFSGSGSGTDFTLTINPVEADDVATYYCQQSNEDPFTFGSGTKLEIKR
B2: scFv S25 (scFv)
scFv: QVKLQQSGAELVRPGASVKLSCKASGYSLTSYWMNWVKQRPGQGLEWIGMIHPSDSDTRFNQKFEDKATLTVDTSSSTAYMQLSSPTSEDSAVYYCARGLYNGFWYFDVWGQGTTVTVSSGGGGSGGGGSGGGGSDIELTQSPALMAASPGEKVIITCSVSSSISSSNLHWYQQKSGTSPKPWIYGTSNLASGVPVRFSGSGSGTSYSLTISSMEAEDAATYYCQQWSSYPLTFGAGTKLEIKR
B3: scFv 1F3 (scFv)
scFv: EVQLQQSGAELVKPGASVKLSCKASGYTFTSFWMHWVKQAPGRGLEWIGRLDPNSGETKYNEKFKSKATLTVDKPSSTAYMELSSLTSEDSAVYYCAREAYGYWNFDVWGTGTTVTVSSGGGGSGGGGSGGGGSDIELTQSPASMSASPGEKVTMTCRATSSVSSSYLHWYQQKSGASPKLWIYSASNLASGVPSRFSGSGSGTSYSLTISSVEAEDAATYYCQQYIGYPYTFGGGTKLEIKR
B4: scFv 1C6 (scFv)
scFv: QIQLLQSGGGVVQPGRSLRLSCAASGFTFSSYAMHWVRQAPGKGLEWVAVISYDGSNKYYADSVKGRFTISRDNSKNTLYLQMNSLRAEDTAVYYCARDWSEGYYYYGMDVWGQGTTVIVSSGGGGSGGGGSGGGGSDIELTQSPASLAVSLGRRATTSCRASESVEYYGTSLMQWYQQKPGQPPKLLIYAASNVESGVPARFSGSGSGTDFSLNIHPVEEEDIAMYFCQQSRKVPWTFGGGTKLEIKR

Legend:
[1] = molecular target: botulinum neurotoxin type A (BoNT/A), pure holotoxin (Clostridium botulinum (type A serotype), UniProt P0DPI0 2-1296); assay: cell-based or functional assay
[2] = molecular target: T1, BoNT/A Hc (C-terminal domain of botulinum neurotoxin type A heavy chain, binding domain) (Clostridium botulinum (type A serotype), UniProt P0DPI0 860-1296)
[3] = molecular target: T1, BoNT/A Hc (C-terminal domain of …); assay: SPR (BIAcore), BoNT/A Hc coupled to CM5 chip, purified scFv in flow

T1 sequence (P0DPI0 860-1296): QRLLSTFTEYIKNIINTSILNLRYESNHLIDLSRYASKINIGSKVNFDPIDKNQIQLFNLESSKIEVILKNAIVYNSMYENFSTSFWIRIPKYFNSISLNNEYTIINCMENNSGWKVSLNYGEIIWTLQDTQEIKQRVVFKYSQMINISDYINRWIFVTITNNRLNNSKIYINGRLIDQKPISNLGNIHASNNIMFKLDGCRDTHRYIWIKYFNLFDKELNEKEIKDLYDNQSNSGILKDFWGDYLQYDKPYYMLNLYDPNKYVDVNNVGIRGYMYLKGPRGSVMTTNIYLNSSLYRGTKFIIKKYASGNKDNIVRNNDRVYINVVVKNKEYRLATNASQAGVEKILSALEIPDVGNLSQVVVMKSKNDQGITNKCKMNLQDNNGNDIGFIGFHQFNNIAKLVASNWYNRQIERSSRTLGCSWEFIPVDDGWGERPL
Chain of botulinum neurotoxin type A (BoNT/A), pure holotoxin (P0DPI0 2-1296 limits assumed): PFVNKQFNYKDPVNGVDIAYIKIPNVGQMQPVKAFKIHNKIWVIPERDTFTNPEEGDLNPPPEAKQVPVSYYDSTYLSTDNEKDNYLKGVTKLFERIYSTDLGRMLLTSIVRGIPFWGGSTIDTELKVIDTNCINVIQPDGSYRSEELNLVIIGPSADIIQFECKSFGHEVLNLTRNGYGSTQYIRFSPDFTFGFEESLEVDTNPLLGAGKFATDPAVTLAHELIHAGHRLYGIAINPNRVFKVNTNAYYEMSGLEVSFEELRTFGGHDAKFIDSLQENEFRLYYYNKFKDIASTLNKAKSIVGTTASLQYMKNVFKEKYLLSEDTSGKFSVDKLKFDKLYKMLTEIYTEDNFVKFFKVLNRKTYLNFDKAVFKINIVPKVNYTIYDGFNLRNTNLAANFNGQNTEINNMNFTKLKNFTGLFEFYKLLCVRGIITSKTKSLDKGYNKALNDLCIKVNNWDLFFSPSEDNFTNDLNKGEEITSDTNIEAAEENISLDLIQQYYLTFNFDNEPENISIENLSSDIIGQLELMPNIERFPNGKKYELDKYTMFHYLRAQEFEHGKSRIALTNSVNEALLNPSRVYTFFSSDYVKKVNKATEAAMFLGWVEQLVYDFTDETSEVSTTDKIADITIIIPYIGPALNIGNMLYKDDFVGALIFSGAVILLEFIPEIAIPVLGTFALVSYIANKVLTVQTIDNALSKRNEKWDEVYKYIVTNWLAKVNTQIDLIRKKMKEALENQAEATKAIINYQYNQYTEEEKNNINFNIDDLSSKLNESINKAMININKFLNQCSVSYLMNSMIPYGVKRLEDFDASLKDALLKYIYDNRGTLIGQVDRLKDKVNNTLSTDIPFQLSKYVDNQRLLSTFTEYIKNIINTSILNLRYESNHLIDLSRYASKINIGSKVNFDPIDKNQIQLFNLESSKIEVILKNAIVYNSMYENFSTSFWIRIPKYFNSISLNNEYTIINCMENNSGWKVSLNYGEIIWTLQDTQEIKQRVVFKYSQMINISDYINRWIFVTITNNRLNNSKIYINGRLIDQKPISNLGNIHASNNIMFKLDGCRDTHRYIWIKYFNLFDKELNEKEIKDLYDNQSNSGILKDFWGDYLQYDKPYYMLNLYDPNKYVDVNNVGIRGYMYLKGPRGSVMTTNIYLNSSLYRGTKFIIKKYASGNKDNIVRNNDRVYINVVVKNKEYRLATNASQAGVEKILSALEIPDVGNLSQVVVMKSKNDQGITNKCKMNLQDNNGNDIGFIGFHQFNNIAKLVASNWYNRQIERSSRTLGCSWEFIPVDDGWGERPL

Binder	prolongation of the time to neuroparalysis (against BoNT/A alone) [1] [fold]	Kd [2] [nM]	koff [3] [s⁻¹]	kon [3] [M⁻¹ s⁻¹]
B1	2.7	–	–	–
B2	1.5	73	0.00082	11000
B3	–	12	0.011	920000
B4	–	20	0.0025	130000

Source: patent publication US20020155114A1 (published 2002)
